Experimental data taken from patent US8168595B2, “Antithrombotic dual inhibitors comprising a biotin residue” (priority 2004, dated 2012).
Counter-ions that a name gives are not always drawn. Like-named read-outs stand apart in the source and are kept apart here.

Tests used:
[1] = molecular target: factor IIa (Homo sapiens, UniProt P00734); assay: In vitro amidolytic anti-factor IIa activity in human plasma (S2238); format: biochemical; conditions: human plasma pH 7.4, substrate S2238; read-out: Anti-IIa Human plasma pH 7.4 IC-50
Method: (§1) In Vitro Test for Determination of the Anti-Factor Xa and Factor IIa Activity in Human Plasma The anti-factor Xa and IIa activity of the tested compounds in human plasma were measured amidolytically using S2222 or S2238 (Chromogenix, Chromogenics Ltd, Molndal, Sweden) as substrates, respectively. The protcols were based on the method described by Teien and Lie. (Teien A N, Lie M. Evaluation of an amidolytic heparin assay method increased sensitivity by adding purified antithrombin III. Thromb. Res. 1977, 10: 399-410). Both activities are expressed in IC-50 (Mol/L).

[2] = system: factor Xa; assay: In vitro amidolytic anti-factor Xa activity in human plasma (S2222); format: biochemical; conditions: human plasma pH 7.4, substrate S2222; read-out: Anti-Xa Human plasma pH 7.4 IC-50
Method: as §1

[3] = Pharmacokinetics after s.c. administration in rats; format: in vivo, male Wistar rats; conditions: rat, 100 nmol/kg s.c.; for AUC(0-inf) / MRT / Tmax / half-life / Cmax: male, Wistar, sc; for AUC(0-inf) / MRT / Tmax / half-life: plasma, 100 nmol/kg; for AUC(0-inf) / MRT / Tmax / half-life / Cmax / Cl / Vz: mean ± s.e.m.; for AUC(0-inf) / MRT / Tmax / Cmax / Cl / Vz: n = 3; for half-life: n = 3, read-out: T½ eli (converted); for pharmacokinetic behavior in rats, compound III compared with Org 42675: within the variability of the experiment
Method: 3.1 Pharmacokinetics The pharmacokinetic properties of Org 42675 and of compound III of this invention were studied in male Wistar rats of 300-400 gr. The rats were anaesthetized by inhalation of a mixture of O2/N2O/isoflurane, after which the right jugular vein was cannulated. The next day rats were treated s.c. with doses of 100 nmol/kg. After s.c. administration, blood was sampled at several time intervals. Then the blood was centrifuged after which the plasma was siphoned off and stored at −20° C. until use. The concentration of the tested compound was measured amidolytically using S-2222 or S-2238 as substrates (Chromogenix, Chromogenics Ltd, Molndal, Sweden) to determine the anti-Xa or anti-IIa activity, respectively. Both procedures were based on the methods of Teien and Lie (Teien A N, Lie M. Evaluation of an amidolytic heparin assay method increased sensitivity by adding purified antithrombin III. Thromb. Res. 1977, 10: 399-410). The concentrations in the obtained plasma samples were determined against a calibration curve which was made of the stock solution of the tested compound itself. The concentration in the samples was expressed in nmol/mL and the kinetic parameters were calculated with the noncompartment model of WinNonlin. (see FIG. 1)

[4] = Pharmacokinetics - neutralization experiment with avidin in rats; format: in vivo; conditions: rat, 100 nmol/kg s.c.
Method: 3.2 Pharmacokinetics—Neutralization Experiment:
Rats were treated with compound III of this invention, or Org 42675 at a dose of 100 nmol/kg s.c. At t=2 h, a blood sample was taken and 10 mg/kg of Avidin (from egg white, Sigma) was administered i.v. to the rats treated with compound III of this invention or Org 42675. Blood was sampled at 0.17, 0.5, 1, 2, 3, and 7 hours subsequently. The blood was treated as described in the pharmacokinetic experiment and the concentration of the samples was determined by measuring the (residual) anti-Xa or anti-IIa activity. (see FIG. 2)

[5] = in vivo; cited from earlier work
[6] = experimental thrombosis; cited from earlier work
[7] = plasma level by anti_Xa activity
[8] = plasma level by anti-IIa activity

COc1cc(C)c(S(=O)(=O)N[C@@H](CC(=O)NCCCC(=O)NCCOCCOCCOCCO[C@H]2[C@H](OC)[C@@H](OC)[C@@H](O[C@H]3[C@H](OC)[C@@H](OC)[C@H](O[C@H]4[C@H](OS(=O)(=O)O)[C@@H](OS(=O)(=O)O)[C@@H](O[C@H]5[C@H](OC)[C@@H](OC)[C@H](O[C@H]6[C@H](OC)[C@@H](OS(=O)(=O)O)[C@@H](OC)O[C@@H]6COS(=O)(=O)O)O[C@H]5C(=O)O)O[C@@H]4COS(=O)(=O)O)O[C@@H]3C(=O)O)O[C@@H]2COS(=O)(=O)O)C(=O)N[C@H](Cc2ccc(C(=N)N)cc2)C(=O)N2CCCCC2)c(C)c1C [Org 42675, reference compound]
IC50 [1]: 17.8 nM
IC50 [2]: 0.767 nM
AUC(0-inf) [3, 7]: 5.3 ± 0.3 µM·h
MRT [3, 7]: 4.6 ± 0.2 h
Tmax [3, 7]: 2.3 ± 0.2 h
half-life [3, 7]: 2.7 ± 0.2 h
Cmax [3, 7]: 1000 ± 20 nM
Cl [3, 7]: 0.318 ± 0.0183 mL/min/kg
Vz [3, 7]: 0.074 ± 0.0045 L/kg
pharmacokinetic behavior in rats, compound III compared with Org 42675 [3]: the same pharmacokinetic behavior
AUC(0-inf) ([4]; Wistar, plasma, subcutaneous, avidin 10 mg/kg i.v. at t = 2 h, calculated from T = 2 h, anti_Xa activity, mean ± s.e.m., n = 3): 4.8 ± 0.6 µM·h
pharmacokinetic behavior on addition of avidin ([4]; avidin 10 mg/kg i.v. at t = 2 h): not affected
prolonged half-life in comparison to the corresponding non-conjugated direct thrombin inhibitor derived from NAPAP [5]: 10 fold
efficacy in comparison with argatroban, heparin and fondaparinux [6]: improved efficacy

COc1cc(C)c(S(=O)(=O)N[C@@H](CC(=O)NCCCC(=O)N[C@@H](CCCCNC(=O)CCCC[C@@H]2SC[C@@H]3NC(=O)N[C@@H]32)C(=O)NCCOCCOCCOCCO[C@H]2[C@H](OC)[C@@H](OC)[C@@H](O[C@H]3[C@H](OC)[C@@H](OC)[C@H](O[C@H]4[C@H](OS(=O)(=O)O)[C@@H](OS(=O)(=O)O)[C@@H](O[C@H]5[C@H](OC)[C@@H](OC)[C@H](O[C@H]6[C@H](OC)[C@@H](OS(=O)(=O)O)[C@@H](OC)O[C@@H]6COS(=O)(=O)O)O[C@H]5C(=O)O)O[C@@H]4COS(=O)(=O)O)O[C@@H]3C(=O)O)O[C@@H]2COS(=O)(=O)O)C(=O)N[C@H](Cc2ccc(C(=N)N)cc2)C(=O)N2CCCCC2)c(C)c1C [Compound III, sodium salt]
IC50 [1]: 16.2 nM
IC50 [2]: 0.843 nM
AUC(0-inf) [3, 8]: 5 ± 0.6 µM·h
MRT [3, 8]: 4.3 ± 0.3 h
Tmax [3, 8]: 1.5 ± 0.5 h
half-life [3, 8]: 2.7 ± 0.5 h
AUC(0-inf) [3, 7]: 7.2 ± 0.2 µM·h
MRT [3, 7]: 5.9 ± 0.5 h
Tmax [3, 7]: 1.2 ± 0.4 h
half-life [3, 7]: 3.9 ± 0.3 h
Cmax [3, 7]: 1100 ± 100 nM
Cl [3, 8]: 0.343 ± 0.04 mL/min/kg
Vz [3, 8]: 0.078 ± 0.0042 L/kg
Cl [3, 7]: 0.232 ± 0.0067 mL/min/kg
Vz [3, 7]: 0.078 ± 0.0046 L/kg
pharmacokinetic behavior in rats, compound III compared with Org 42675 [3]: the same pharmacokinetic behavior
neutralization of antithrombotic activity ((residual) anti-Xa and anti-IIa activity) by avidin ([4]; avidin 10 mg/kg i.v.): can be neutralized
